In patent US20090004210A1:

target: monoclonal antibody (mAb) to detect Aβ42-derived peptide species with free N-terminus (generated in Example 1); assay: competition ELISA: soluble peptide against plate-bound DAEFRH-C-BSA for the biotinylated mAb, FIG. 2

| IC50 | Molecule |
| --- | --- |
| < 0.5 µg/mL | DYEFRGC [Peptide 3007 DYEFRG] |
| < 0.5 µg/mL | EAEFRGC [Peptide 3006 EAEFRG] |
| > 0.5 µg/mL | YAEFRGC [Peptide 3005 YAEFRG] |
| > 0.5 µg/mL | DWELRIC [Peptide 3002 DWELRI] |
| < 0.5 µg/mL | DKELRIC [Peptide 3001 DKELRI] |

target: monoclonal antibody (mAb) to detect Aβ42-derived peptide species with free N-terminus (generated in Example 1); assay: competition ELISA: soluble peptide against plate-bound DAEFRH-C-BSA for the biotinylated mAb, FIG. 5

| Molecule | IC50 |
| --- | --- |
| DWEFRDAC [Peptide 1241 DWEFRDA] | < 0.5 µg/mL |
| DRELKIC [Peptide 1237 DRELKI] | > 5 µg/mL |
| DRELRIC [Peptide 1235 DRELRI] | < 0.5 µg/mL |

Other lines, results leading:

| IC50 | Molecule |
| --- | --- |
| > 5 µg/mL | DKELKIC [Peptide 1236 DKELKI] |
| < 0.5 µg/mL | DKELRC [Peptide 1238 DKELR] |
| > 0.5 µg/mL | EYEFRGC [Peptide 1239 EYEFRG] |

target: monoclonal antibody (mAb) to detect Aβ42-derived peptide species with free N-terminus (generated in Example 1); assay: competition ELISA: soluble peptide against plate-bound DAEFRH-C-BSA for the biotinylated mAb, FIG. 7

| Molecule | IC50 |
| --- | --- |
| SYEFRHHC [Peptide 4022 SYEFRHH] | < 0.5 µg/mL |
| SSEFRVSC [Peptide 4024 SSEFRVS] | < 0.5 µg/mL |
| SWELRQAC [Peptide 4020 SWELRQA] | > 0.5 µg/mL |

Further lines, results first:

| IC50 | Molecule |
| --- | --- |
| < 0.5 µg/mL | SQEFRTPC [Peptide 4023 SQEFRTP] |
| < 0.5 µg/mL | SVEFRYHC [Peptide 4021 SVEFRYH] |
| < 0.5 µg/mL | DWEFRDC [Peptide 4025 DWEFRD] |

target: monoclonal antibody (mAb) to detect Aβ42-derived peptide species with free N-terminus (generated in Example 1); assay: competition ELISA: soluble peptide against plate-bound DAEFRH-C-BSA for the biotinylated mAb, FIG. 9

| IC50 | Molecule |
| --- | --- |
| > 0.5 µg/mL | Peptide 4063 DKE(Nva)R |
| > 0.5 µg/mL | Peptide 4064 DKE(Cha)R |
| > 0.5 µg/mL | Peptide 4062 DKE(Nle)R |

target: monoclonal antibody (mAb) to detect Aβ42-derived peptide species with free N-terminus (generated in Example 1); assay: competition ELISA: soluble peptide against plate-bound DAEFRH-C-BSA for the biotinylated mAb, FIG. 4

| IC50 | Molecule |
| --- | --- |
| < 0.4 µg/mL | SWEFRTC [Peptide 4002 SWEFRT] |

target: monoclonal antibody (mAb) to detect Aβ42-derived peptide species with free N-terminus (generated in Example 1); assay: competition ELISA: soluble peptide against plate-bound DAEFRH-C-BSA for the biotinylated mAb, FIG. 3

| IC50 | Molecule |
| --- | --- |
| < 5 µg/mL | SFEFRGC [Peptide 3009 SFEFRG] |
| < 5 µg/mL | ELEFRGC [Peptide 3008 ELEFRG] |

target: monoclonal antibody (mAb) to detect Aβ42-derived peptide species with free N-terminus (generated in Example 1); assay: competition ELISA: soluble peptide against plate-bound DAEFRH-C-BSA for the biotinylated mAb, FIG. 8

| Molecule | IC50 |
| --- | --- |
| AYEFRHC [Peptide 4036 AYEFRH] | > 0.5 µg/mL |
| GPEFRWC [Peptide 4034 GPEFRW] | < 0.5 µg/mL |
| GKEFRTC [Peptide 4035 GKEFRT] | < 0.5 µg/mL |
| SLEFRFC [Peptide 4033 SLEFRF] | < 0.5 µg/mL |

The next lines start with the values.

| IC50 | Molecule |
| --- | --- |
| < 0.5 µg/mL | DAELRYC [Peptide 4031 DAELRY] |
| < 0.5 µg/mL | DWELRQC [Peptide 4032 DWELRQ] |
